Data as given in the supplement of paper PMC7877785.
± gives the uncertainty stated by the source.

Assay: self-splicing fitness, log relative to wild type (ln ratio); higher = more splicing; Tetrahymena group I intron in knt gene, E. coli kanamycin selection, DiMSum; sequences stand for … in CUCUCU…GGAGGGAAAAGUUAUCAGGCAUGCACCUGGUAGCUAGUCUUUAAACCAAUAGAUUGCAUCGGUUUAAAAGGCAAGACCGUCAAAUUGCGGGAAAGGGGUCAACAGCCGUUCAGUACCAAGUCUCAGGGGAAACUUUGAGAUGGCCUUGCAAAGGGUAUGGUAAUAAGCUGACGGACAUGGUCCUAACCACGCAGCCAAGUCCUAAGUCAACAGAUCUUCUGUUGAUAUGGAUGCAGUUCACAGACUAAAUGUCGGUCGGGGAAGAUGUAUUCUUCUCAUAAGAUAUAGUCGGACCUCUCCUUAAUGGGAGCUAGCGGAUGAAGUGAUGCAACACUGGAGCCGCUGGGAACUAAUUUGUAUGCGAAAGUAUAUUGAUUAGUUUUGGAGUACUCGUGGUCG
Outline: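 A randomised library covering all eight P1ex-region intron nucleotides was built with the intron in the knt kanamycin-resistance gene on pET-22b(+) and held in E. coli BL21(DE3). Cells were grown overnight at 37°C or 30°C on LB agar, with or without 25 μg/mL kanamycin, plus 100 μg/mL carbenicillin, 50 μM IPTG and 0.2% rhamnose, and pooled colonies were amplicon-sequenced on an Illumina HiSeq 2500. DiMSum fitness is the error-weighted combination of wild-type-normalised replicate fold changes, kanamycin versus none.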

Row | Sequence | self-splicing fitness (ln) (30 °C) | self-splicing fitness (ln) (37 °C)
1 | GAAGAGCAAUAUUACGGUCG | -3.24 ± 0.13 | -1.61 ± 0.15
2 | GAAGAGCAAUAUUACGGUGU | -3.49 ± 0.14 | -3.02 ± 0.23
3 | GAAGAGCAAUAUUACGGUUA | -1.49 ± 0.19 | -1.27 ± 0.23
4 | GAAGAGCAAUAUUACGUAGU | -2.69 ± 0.13 | -2.88 ± 0.2
5 | GAAGAGCAAUAUUACGUCAU | -3.91 ± 0.48 | -2.13 ± 0.38
6 | GAAGAGCAAUAUUACGUCUC | -2.37 ± 0.37 | -1.19 ± 0.49
7 | GAAGAGCAAUAUUACGUGAC | -3.21 ± 0.22 | -1.72 ± 0.18
8 | GAAGAGCAAUAUUACGUUUU | -4.09 ± 0.23 | -2.38 ± 0.21
9 | GAAUAGCAAUAUUACGAAGG | -2.77 ± 0.27 | 
10 | GAAUAGCAAUAUUACGCCCG | -1.28 ± 0.18 | -0.828 ± 0.23
11 | GAAUAGCAAUAUUACGCCUU | -0.0381 ± 0.072 | 0.111 ± 0.081
12 | GAAUAGCAAUAUUACGCGCA | -0.334 ± 0.066 | -0.494 ± 0.074
13 | GAAUAGCAAUAUUACGCGUC | -1.98 ± 0.23 | 0.15 ± 0.32
14 | GAAUAGCAAUAUUACGCUAA | -2.59 ± 0.25 | -1.05 ± 0.25
15 | GAAUAGCAAUAUUACGCUUU | -2.02 ± 0.15 | -1.35 ± 0.16
16 | GAAUAGCAAUAUUACGGAGG | -4.24 ± 0.3 | -2.27 ± 0.22
17 | GAAUAGCAAUAUUACGGUCU | -0.677 ± 0.084 | -0.0473 ± 0.097
18 | GAAUAGCAAUAUUACGGUUA | -0.656 ± 0.11 | -0.631 ± 0.091
19 | GAAUAGCAAUAUUACGUCUC | -0.581 ± 0.11 | -0.137 ± 0.16
20 | GAAUAGCAAUAUUACGUGCC | -0.897 ± 0.12 | -0.104 ± 0.15
21 | GAAUAGCAAUAUUACGUGUU | -2.18 ± 0.12 | -0.873 ± 0.1
22 | GAAUAGCAAUAUUACGUUGG | -3.3 ± 0.16 | -2.77 ± 0.2
23 | GAAUAGCAAUAUUACGUUUA | -1.79 ± 0.15 | -1.01 ± 0.15
24 | GACAAGCAAUAUUACGAAAG | -3.82 ± 0.23 | -3.18 ± 0.24
25 | GACAAGCAAUAUUACGACGU | -0.139 ± 0.065 | -0.167 ± 0.074

Row | Sequence | self-splicing fitness (ln) (30 °C) | self-splicing fitness (ln) (37 °C)
26 | GACAAGCAAUAUUACGACUA | -0.408 ± 0.058 | 0.117 ± 0.066
27 | GACAAGCAAUAUUACGAGAA | -1.77 ± 0.3 | -2.19 ± 0.22
28 | GACAAGCAAUAUUACGAGGU | -3.51 ± 0.15 | -2.92 ± 0.16
29 | GACAAGCAAUAUUACGAGUG | -1.55 ± 0.056 | -0.456 ± 0.073
30 | GACAAGCAAUAUUACGAUCG | -0.776 ± 0.086 | -0.39 ± 0.11
31 | GACAAGCAAUAUUACGCAAG | -2.27 ± 0.091 | -1.75 ± 0.12
32 | GACAAGCAAUAUUACGCCUA | -0.964 ± 0.093 | -0.0625 ± 0.088
33 | GACAAGCAAUAUUACGCCUG | -1.3 ± 0.093 | -0.0185 ± 0.1
34 | GACAAGCAAUAUUACGCUCU | -2.38 ± 0.13 | -1.08 ± 0.12
35 | GACAAGCAAUAUUACGCUUC | -3.75 ± 0.26 | -2.25 ± 0.25
36 | GACAAGCAAUAUUACGGCUG | -0.552 ± 0.082 | -0.635 ± 0.11
37 | GACAAGCAAUAUUACGGGUC | -3.73 ± 0.19 | -3.15 ± 0.28
38 | GACAAGCAAUAUUACGGGUU | -3.38 ± 0.14 | -3.46 ± 0.17
39 | GACAAGCAAUAUUACGGUCG | -1.22 ± 0.076 | -0.0208 ± 0.09
40 | GACAAGCAAUAUUACGGUUA | -0.281 ± 0.079 | -0.186 ± 0.077
41 | GACAAGCAAUAUUACGGUUC | -3.57 ± 0.16 | -2.81 ± 0.32
42 | GACAAGCAAUAUUACGUAAU | -2.61 ± 0.088 | -1.16 ± 0.081
43 | GACAAGCAAUAUUACGUAUA | -1.76 ± 0.15 | -1.79 ± 0.13
44 | GACAAGCAAUAUUACGUGGG | -4.48 ± 0.2 | -1.87 ± 0.12
45 | GACAAGCAAUAUUACGUGUU | -3.4 ± 0.12 | -2.21 ± 0.12
46 | GACCAGCAAUAUUACGAAUG | -1.82 ± 0.071 | -1.49 ± 0.088
47 | GACCAGCAAUAUUACGACAU | -0.634 ± 0.011 | -0.0858 ± 0.032
48 | GACCAGCAAUAUUACGACGC | 0.184 ± 0.074 | -0.35 ± 0.085
49 | GACCAGCAAUAUUACGAUCA | -1.38 ± 0.1 | -1.1 ± 0.12
50 | GACCAGCAAUAUUACGAUGA | -0.717 ± 0.071 | -0.509 ± 0.085

Row | Sequence | self-splicing fitness (ln) (30 °C) | self-splicing fitness (ln) (37 °C)
51 | GACCAGCAAUAUUACGCACA | -0.51 ± 0.05 | -0.0966 ± 0.07
52 | GACCAGCAAUAUUACGCAUU | -0.15 ± 0.053 | 0.0155 ± 0.067
53 | GACCAGCAAUAUUACGCGAC | -2.3 ± 0.11 | -1.04 ± 0.13
54 | GACCAGCAAUAUUACGCUAA | -1.18 ± 0.078 | 0.196 ± 0.093
55 | GACCAGCAAUAUUACGGAAU | -0.34 ± 0.046 | 0.128 ± 0.066
56 | GACCAGCAAUAUUACGGACG | 0.108 ± 0.075 | 0.272 ± 0.094
57 | GACCAGCAAUAUUACGGCGU | 0.046 ± 0.071 | 0.319 ± 0.087
58 | GACCAGCAAUAUUACGUAGU | -0.667 ± 0.061 | -0.248 ± 0.077
59 | GACCAGCAAUAUUACGUCAA | -2.51 ± 0.18 | -1.06 ± 0.1
60 | GACCAGCAAUAUUACGUCGA | -1.44 ± 0.078 | -0.592 ± 0.078
61 | GACCAGCAAUAUUACGUCGG | -2.79 ± 0.21 | -1.98 ± 0.28
62 | GACCAGCAAUAUUACGUGCC | -0.32 ± 0.11 | -0.217 ± 0.13
63 | GACCAGCAAUAUUACGUGCU | -2.85 ± 0.12 | -2.63 ± 0.21
64 | GACGAGCAAUAUUACGAAGU | -3.26 ± 0.22 | -2.57 ± 0.26
65 | GACGAGCAAUAUUACGAUCA | -2.22 ± 0.36 | -0.86 ± 0.23
66 | GACGAGCAAUAUUACGCCGC | -2.06 ± 0.16 | -1.72 ± 0.38
67 | GACGAGCAAUAUUACGCGUA | -1.82 ± 0.12 | -1.95 ± 0.098
68 | GACGAGCAAUAUUACGCUAA | -2.64 ± 0.35 | -2.25 ± 0.31
69 | GACGAGCAAUAUUACGCUCG | -1.59 ± 0.35 | -1.6 ± 0.33
70 | GACGAGCAAUAUUACGGAAU | -3.93 ± 0.28 | -0.331 ± 0.16
71 | GACGAGCAAUAUUACGGCUA | -0.73 ± 0.11 | -0.653 ± 0.11
72 | GACGAGCAAUAUUACGUAGG | -3.47 ± 0.25 | -2.12 ± 0.22
73 | GACGAGCAAUAUUACGUCGA | -1.82 ± 0.23 | 
74 | GACGAGCAAUAUUACGUGCA | -3.06 ± 0.17 | -0.901 ± 0.16
75 | GACGAGCAAUAUUACGUUAA | -3.77 ± 0.27 | -2.79 ± 0.25
